Measurements as given in patent US12433934B2, “Methods and compositions for preventing and treating atherosclerosis and related diseases” (Shanghai Puyou Biomedical Co., Ltd., priority 2018, dated 2025).
Residue numbers refer to the chain shown, from its start. “Also recorded” adds a separate entry of the source.

Tests used:
ApoE−/− mice = assay: Atherosclerotic plaques of the aorta (en face oil red O staining) in high-fat diet ApoE−/− mice; type: in vivo; details: ATV 40 mg/kg orally once a day, 13 weeks, high-fat diet
Procedure: FIGS. 15-16. The sDSS1 protein inhibits the formation of atherosclerotic plaques in ApoE−/− mice. […] At the end of the injection, the aorta was dissected for oil red O staining, and the area of plaques was calculated.
Experimental animals: ApoE−/− mice, 8-week-old, male, were purchased from Nanjing Biomedical Research Institute of Nanjing University. The experimental animals were housed in an animal room for one week before the experiment.
Experimental method: ApoE−/− mice were fed with high-fat diet containing 0.25% cholesterol starting from the age of 9 weeks. From the 10th week of high-fat diet feeding, the mice were randomly divided into three groups according to the total cholesterol level, with 10 mice in each group. […] At the 22nd week of high-fat diet feeding, that is, the 13th week of administration, the animals were executed and dissected, and the whole aorta was separated. The separated aorta was stained with en face oil red O to evaluate the formation of atherosclerotic plaques.

oxLDL = biological target: T1, oxLDL (Homo sapiens, UniProt P04114); assay: Co-incubation with oxLDL, SDS-PAGE separation, Coomassie brilliant blue staining; type: binding; details: phosphate buffer pH 7.2
T1 construct: purchased Solarbio H7980
T1 sequence (P04114 28-4563): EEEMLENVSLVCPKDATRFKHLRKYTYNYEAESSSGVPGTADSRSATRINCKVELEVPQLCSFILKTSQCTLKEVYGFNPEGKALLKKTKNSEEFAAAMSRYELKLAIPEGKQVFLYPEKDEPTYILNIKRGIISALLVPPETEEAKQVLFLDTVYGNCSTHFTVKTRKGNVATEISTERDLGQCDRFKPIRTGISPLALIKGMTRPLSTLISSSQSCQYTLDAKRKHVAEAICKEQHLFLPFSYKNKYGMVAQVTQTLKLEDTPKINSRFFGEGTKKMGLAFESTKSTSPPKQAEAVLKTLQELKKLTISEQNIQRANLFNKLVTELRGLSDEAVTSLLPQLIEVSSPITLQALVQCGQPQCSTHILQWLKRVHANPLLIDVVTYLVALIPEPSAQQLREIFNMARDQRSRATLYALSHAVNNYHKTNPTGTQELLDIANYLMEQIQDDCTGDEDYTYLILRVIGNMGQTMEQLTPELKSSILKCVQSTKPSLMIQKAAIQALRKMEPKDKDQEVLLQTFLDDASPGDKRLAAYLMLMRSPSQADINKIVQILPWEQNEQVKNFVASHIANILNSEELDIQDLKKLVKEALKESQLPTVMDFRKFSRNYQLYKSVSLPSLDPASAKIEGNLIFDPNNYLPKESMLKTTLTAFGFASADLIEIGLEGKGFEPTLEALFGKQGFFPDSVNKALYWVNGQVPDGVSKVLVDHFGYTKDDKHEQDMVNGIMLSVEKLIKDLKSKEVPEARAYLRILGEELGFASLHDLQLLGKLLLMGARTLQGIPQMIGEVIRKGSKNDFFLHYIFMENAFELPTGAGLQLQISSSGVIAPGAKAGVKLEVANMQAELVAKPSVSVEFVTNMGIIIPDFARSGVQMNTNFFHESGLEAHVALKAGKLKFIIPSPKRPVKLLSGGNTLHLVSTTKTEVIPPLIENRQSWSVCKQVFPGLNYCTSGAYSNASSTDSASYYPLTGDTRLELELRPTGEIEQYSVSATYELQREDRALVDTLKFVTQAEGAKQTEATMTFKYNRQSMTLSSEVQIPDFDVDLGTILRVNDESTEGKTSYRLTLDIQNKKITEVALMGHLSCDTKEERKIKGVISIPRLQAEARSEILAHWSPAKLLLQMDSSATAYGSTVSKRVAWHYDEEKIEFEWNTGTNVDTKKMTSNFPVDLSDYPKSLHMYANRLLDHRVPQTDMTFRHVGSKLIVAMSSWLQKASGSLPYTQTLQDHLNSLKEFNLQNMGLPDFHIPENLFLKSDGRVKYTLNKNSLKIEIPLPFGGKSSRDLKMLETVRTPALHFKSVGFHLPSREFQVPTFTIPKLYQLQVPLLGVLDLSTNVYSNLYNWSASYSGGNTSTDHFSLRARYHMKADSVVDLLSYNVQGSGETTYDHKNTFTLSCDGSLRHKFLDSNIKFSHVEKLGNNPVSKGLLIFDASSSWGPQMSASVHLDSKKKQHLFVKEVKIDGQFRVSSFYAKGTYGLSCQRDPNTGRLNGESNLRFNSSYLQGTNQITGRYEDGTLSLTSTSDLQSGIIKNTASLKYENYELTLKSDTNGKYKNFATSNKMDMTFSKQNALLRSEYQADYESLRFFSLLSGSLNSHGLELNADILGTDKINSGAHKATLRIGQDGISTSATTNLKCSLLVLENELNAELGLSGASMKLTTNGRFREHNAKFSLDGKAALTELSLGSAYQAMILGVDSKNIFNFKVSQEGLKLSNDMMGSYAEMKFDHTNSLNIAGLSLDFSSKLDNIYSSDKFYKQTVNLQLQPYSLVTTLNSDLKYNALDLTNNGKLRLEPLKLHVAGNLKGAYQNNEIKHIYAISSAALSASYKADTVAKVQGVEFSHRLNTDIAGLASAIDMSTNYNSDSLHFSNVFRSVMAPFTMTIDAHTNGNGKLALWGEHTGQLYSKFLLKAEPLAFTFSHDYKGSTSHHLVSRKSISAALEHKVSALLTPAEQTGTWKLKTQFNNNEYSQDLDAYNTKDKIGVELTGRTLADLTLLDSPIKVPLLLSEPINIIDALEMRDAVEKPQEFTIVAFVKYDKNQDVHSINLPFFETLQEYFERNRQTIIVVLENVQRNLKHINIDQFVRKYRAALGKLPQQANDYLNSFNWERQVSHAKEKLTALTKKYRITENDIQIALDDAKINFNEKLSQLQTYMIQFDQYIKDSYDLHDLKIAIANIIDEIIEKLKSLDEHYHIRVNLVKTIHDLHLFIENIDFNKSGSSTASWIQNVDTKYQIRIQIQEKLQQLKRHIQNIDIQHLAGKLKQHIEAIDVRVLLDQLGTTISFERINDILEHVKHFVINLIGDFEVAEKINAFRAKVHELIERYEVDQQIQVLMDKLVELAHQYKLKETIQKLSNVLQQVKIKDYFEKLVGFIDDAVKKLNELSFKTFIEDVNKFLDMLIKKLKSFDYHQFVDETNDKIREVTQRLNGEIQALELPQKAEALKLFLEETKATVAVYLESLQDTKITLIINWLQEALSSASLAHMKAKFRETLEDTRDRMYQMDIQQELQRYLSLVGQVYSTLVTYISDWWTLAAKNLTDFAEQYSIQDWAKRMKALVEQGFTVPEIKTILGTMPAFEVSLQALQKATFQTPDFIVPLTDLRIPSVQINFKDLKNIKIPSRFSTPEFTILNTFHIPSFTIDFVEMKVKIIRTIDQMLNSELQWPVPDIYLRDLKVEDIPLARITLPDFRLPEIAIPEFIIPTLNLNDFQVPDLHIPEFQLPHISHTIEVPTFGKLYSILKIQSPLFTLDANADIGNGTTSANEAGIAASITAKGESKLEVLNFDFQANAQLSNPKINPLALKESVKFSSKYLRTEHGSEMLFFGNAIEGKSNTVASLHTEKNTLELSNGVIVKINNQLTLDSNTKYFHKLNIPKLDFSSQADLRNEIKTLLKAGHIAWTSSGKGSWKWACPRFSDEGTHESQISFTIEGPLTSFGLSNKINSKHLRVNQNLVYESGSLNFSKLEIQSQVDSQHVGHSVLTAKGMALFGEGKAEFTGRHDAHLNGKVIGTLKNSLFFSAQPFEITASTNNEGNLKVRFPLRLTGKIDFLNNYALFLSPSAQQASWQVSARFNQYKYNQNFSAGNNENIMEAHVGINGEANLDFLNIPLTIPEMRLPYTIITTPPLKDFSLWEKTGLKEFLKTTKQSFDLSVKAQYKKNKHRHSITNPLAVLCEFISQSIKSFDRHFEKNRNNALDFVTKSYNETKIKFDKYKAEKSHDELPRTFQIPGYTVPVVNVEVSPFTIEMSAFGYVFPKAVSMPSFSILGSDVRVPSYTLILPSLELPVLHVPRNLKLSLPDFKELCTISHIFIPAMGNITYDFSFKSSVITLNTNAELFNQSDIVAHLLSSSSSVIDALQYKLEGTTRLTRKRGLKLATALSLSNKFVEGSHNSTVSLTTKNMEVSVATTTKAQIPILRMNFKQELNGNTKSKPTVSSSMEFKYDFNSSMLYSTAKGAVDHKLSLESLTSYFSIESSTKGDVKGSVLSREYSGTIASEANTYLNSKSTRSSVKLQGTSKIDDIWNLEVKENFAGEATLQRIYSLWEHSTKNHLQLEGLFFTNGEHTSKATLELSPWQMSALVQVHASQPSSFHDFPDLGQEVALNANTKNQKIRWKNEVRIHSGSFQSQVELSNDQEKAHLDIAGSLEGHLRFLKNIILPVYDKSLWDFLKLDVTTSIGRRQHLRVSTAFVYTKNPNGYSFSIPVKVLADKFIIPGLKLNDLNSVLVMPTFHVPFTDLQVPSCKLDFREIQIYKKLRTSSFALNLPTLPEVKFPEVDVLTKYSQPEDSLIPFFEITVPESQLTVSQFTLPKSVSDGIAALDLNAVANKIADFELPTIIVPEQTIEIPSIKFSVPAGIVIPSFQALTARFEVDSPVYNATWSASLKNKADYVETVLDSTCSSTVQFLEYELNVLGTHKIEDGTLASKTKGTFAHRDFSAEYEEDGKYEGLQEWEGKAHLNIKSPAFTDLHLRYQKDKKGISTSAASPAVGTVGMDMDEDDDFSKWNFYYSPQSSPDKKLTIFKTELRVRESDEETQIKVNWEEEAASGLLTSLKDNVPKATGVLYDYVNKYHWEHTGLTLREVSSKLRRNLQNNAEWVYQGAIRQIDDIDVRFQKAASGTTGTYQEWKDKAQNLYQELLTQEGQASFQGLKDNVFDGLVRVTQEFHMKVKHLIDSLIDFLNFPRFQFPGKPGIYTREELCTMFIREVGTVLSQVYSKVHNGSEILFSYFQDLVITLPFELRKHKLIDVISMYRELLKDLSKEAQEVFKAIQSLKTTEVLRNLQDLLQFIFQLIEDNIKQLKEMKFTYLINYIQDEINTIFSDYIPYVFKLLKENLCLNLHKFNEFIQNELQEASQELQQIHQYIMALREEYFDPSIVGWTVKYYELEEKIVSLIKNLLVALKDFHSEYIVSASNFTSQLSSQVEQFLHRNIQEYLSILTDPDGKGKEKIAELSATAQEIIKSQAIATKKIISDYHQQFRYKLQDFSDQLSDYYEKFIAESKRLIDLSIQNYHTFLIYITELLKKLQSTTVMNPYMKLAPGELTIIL
Procedure: Experimental materials: sDSS1 protein, sDSS1 mutant protein 1 (sDSS1-M1, SEQ ID NO: 15), sDSS1 mutant protein 2 (sDSS1-M2, SEQ ID NO: 16), oxidized low density lipoprotein (oxLDL) (Solarbio, Article No.: H7980); low density lipoprotein (LDL) (Solarbio, Article No.: H7960).
Experimental method: 2 μg of oxLDL or LDL was mixed with 6 μg of sDSS1 protein or 10 μg of sDSS1 protein in a 1.5 ml EP tube in the presence of 20 mM sodium acetate/acetic acid buffer (pH 4.5) or 20 mM phosphate buffer (pH 7.2) respectively, and incubated at 37° C. for 12 h. A loading buffer was added in the incubated product and evenly mixed, and the obtained mixture was denatured at 100° C. for 10 min to prepare a loading sample. The resulting sample was subjected to electrophoretic separation via polyacrylamide gel electrophoresis (SDS-PAGE). After separation, the SDS-PAGE gel was stained with Coomassie brilliant blue to display protein strips. The sDSS1-M1 or sDSS1-M2 protein was respectively mixed and incubated with oxLDL, and treated in the same way. 15 μL of the sample was used for SDS-PAGE electrophoresis separation.

CC(C)c1c(C(=O)Nc2ccccc2)c(-c2ccccc2)c(-c2ccc(F)cc2)n1CC[C@@H](O)C[C@@H](O)CC(=O)O [ATV, Atorvastatin, reference compound]
Area of atherosclerotic plaques (en face oil red O) vs model group (ApoE−/− mice): significantly reduced

B1: sDSS1-M1: sDSS1 mutant protein 1, SEQ ID NO: 15 (protein)
chain: MSEKKQPVDLGLLEEDDEFEEFPAEDWAGLDEDEDAHVWEDNWDDDNVEDDFSNQLRATVLLMILVAETPYGAYVLHQKGRMASAFLAA
Interaction with oxLDL (complex on SDS-PAGE gel) (oxLDL): can also interact with oxLDL to form complexes; also recorded: interacted with the oxLDL protein

B2: sDSS1-M2: sDSS1 mutant protein 2, SEQ ID NO: 16 (protein)
chain: B1 chain with A67V, A73V, A83V, A88V, A89V
Interaction with oxLDL (complex on SDS-PAGE gel) (oxLDL): can also interact with oxLDL to form complexes; also recorded: interacts with the oxLDL protein
